Reference: publication PMC5765355, “Phosphorylation of Pnut in the Early Stages of Drosophila Embryo Development Affects Association of the Septin Complex with the Membrane and Is Important for Viability” (G3: Genes|Genomes|Genetics, 2017)
Substitutions are numbered along the chain they refer to.

T1: His-tagged wild-type Pnut (Drosophila melanogaster, UniProt P40797 1-539)
T1 construct: Septin Pnut (Peanut), Drosophila melanogaster, wild type; homolog of human SEPT7; also called His–Pnut; Pnut-WT; source: baculovirus expression system, expressed together with Sep1 and Sep2; assembled complex purified
T1 sequence (looked up): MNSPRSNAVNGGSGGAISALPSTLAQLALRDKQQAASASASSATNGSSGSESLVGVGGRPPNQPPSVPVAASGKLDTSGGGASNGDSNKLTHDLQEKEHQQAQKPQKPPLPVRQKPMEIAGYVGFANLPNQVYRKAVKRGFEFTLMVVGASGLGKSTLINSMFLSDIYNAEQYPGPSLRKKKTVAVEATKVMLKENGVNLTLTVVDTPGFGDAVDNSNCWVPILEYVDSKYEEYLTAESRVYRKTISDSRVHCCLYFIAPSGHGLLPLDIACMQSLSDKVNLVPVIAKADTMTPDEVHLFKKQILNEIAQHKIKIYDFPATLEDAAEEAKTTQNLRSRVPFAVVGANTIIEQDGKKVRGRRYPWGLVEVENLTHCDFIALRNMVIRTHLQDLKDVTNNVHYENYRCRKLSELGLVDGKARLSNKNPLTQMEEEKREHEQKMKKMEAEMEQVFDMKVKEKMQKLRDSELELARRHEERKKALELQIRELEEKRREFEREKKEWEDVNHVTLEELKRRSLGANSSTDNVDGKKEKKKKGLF

T2: His-tagged nonphosphorylatable Pnut-T509A/S517A (Drosophila melanogaster, UniProt P40797 1-539, T509A | S517A)
T2 construct: Septin Pnut (Peanut), Drosophila melanogaster, with T509A and S517A; source: baculovirus expression system, expressed together with Sep1 and Sep2; assembled complex purified
T2 sequence (looked up): T1 sequence (looked up) with T509A, S517A

T3: His-tagged phospho-mimetic Pnut-T509E/S517E (Drosophila melanogaster, UniProt P40797 1-539, T509E | S517E)
T3 construct: Septin Pnut (Peanut), Drosophila melanogaster, with T509E and S517E; also called T509E/S517E mutant; source: baculovirus expression system, expressed together with Sep1 and Sep2; assembled complex purified
T3 sequence (looked up): T1 sequence (looked up) with T509E, S517E

B1: Sep1 (recombinant) (natural protein, Drosophila melanogaster, UniProt P42207 1-361, looked up)
chain: MADTKGFSSIETPGYVGFANLPNQVHRKSVKKGFEFTLMVVGESGLGKSTLVNSLFLTDLYPERIIPDAIEKQKQTVKLEASTVEIEERGVKLRLTVVDTPGFGDAIDNSNSFGAILEYIDEQYERFLRDESGLNRRNIVDNRIHCCFYFISPFGHGLKPLDVEFMKKLHSKVNIVPVIAKADCLTKKEILRLKCRIMQEIESHGIKIYPLPDCDSDEDEDYKEQVKQLKEAVPFAVCGANTLLEVKGKKVRGRLYPWGVVEVENPDHCDFIKLRTMLITHMQDLQEVTQEVHYENYRSDRLAKGIKGKENGVKAERDSSSQVVSNSVLGEKDRILQEKEAELRRMQEMLAQMQARMQAQQ
notes: Septin Sep1, Drosophila melanogaster; homolog of human SEPT2; source: baculovirus expression system, expressed together with His-tagged Pnut and Sep2; assembled complex purified
B2: Sep2 (recombinant) (natural protein, Drosophila melanogaster, UniProt P54359 1-419, looked up)
chain: MSVEVDFVDKKEVHLRTLKQSGHVGFDSLPDQLVNKSVQNGFVFNVMCIGETGLGKSTLMDTLFNTSFESTPSPHTLPSVKLKAHTYELQESNVRLKLTICDTVGYGDQINKDDSFKAVVDYIDAQFENYLQEELKIKRSLVTCHDSRIHICLYFICPTGHGLKSLDLVCMKKLDSKVNIIPVIAKADTISKVELQRFKAKIIQELNANGVHIYQFPTDDETVAETNTSMNSHIPFAVVGSTEFIKVGNKLIRARQYPWGTVQVENETHCDFVKLREMLIRTNMEDMREKTHTRHYELYRQKRLEQMGFSDVDSDNKPISFQQTFEAKRSNHLAELQSKEEEVRQMFVQRVKEKEAELKESEKDLHAKFEKLKRDHAEEKRKLEESRKALEEDYLDFQRRKQQLATAHHTLTLGKSKKK
notes: Septin Sep2, Drosophila melanogaster; homolog of human SEPT6; source: baculovirus expression system, expressed together with His-tagged Pnut and Sep1; assembled complex purified

Key:
Conditions in all cases: both partners purified
[1] = target: T1, His-tagged wild-type Pnut; experiment: pull-down; 2 µg purified recombinant septin complex diluted in 200 µl pull-down buffer (25 mM HEPES pH 7.6, 2 mM MgCl2, 10 mM imidazole) with 50 mM KCl; His-Pnut held on HisPur Ni-NTA resin, 1 hr at 22°; eluted with 250 mM imidazole; silver-stained SDS-PAGE; Sep1 given as a percentage of the Pnut amount
[2] = target: T2, His-tagged nonphosphorylatable …; experiment: as above
[3] = target: T3, His-tagged phospho-mimetic …; experiment: as above
[4] = target: T1, His-tagged wild-type Pnut; experiment: pull-down; 2 µg purified recombinant septin complex diluted in 200 µl pull-down buffer (25 mM HEPES pH 7.6, 2 mM MgCl2, 10 mM imidazole) with 300 mM KCl; His-Pnut held on HisPur Ni-NTA resin, 1 hr at 22°; eluted with 250 mM imidazole; silver-stained SDS-PAGE; Sep1 given as a percentage of the Pnut amount
[5] = target: T2, His-tagged nonphosphorylatable …; experiment: as above
[6] = target: T3, His-tagged phospho-mimetic …; experiment: as above

Binder	amount of Sep1 as a percentage of the Pnut amount [1] [%]	amount of Sep1 as a percentage of the Pnut amount [2] [%]	amount of Sep1 as a percentage of the Pnut amount [3] [%]	amount of Sep1 as a percentage of the Pnut amount [4] [%]	amount of Sep1 as a percentage of the Pnut amount [5] [%]	amount of Sep1 as a percentage of the Pnut amount [6] [%]	binding result [3]	binding result [4]	binding result [5]
B1	34	17	1	62.3	62	31			
B2							binds	binds	binds
